Source: paper PMC9089796, “Oxidative stress promotes fibrosis in systemic sclerosis through stabilization of a kinase-phosphatase complex” (JCI Insight, 2022)

B1: His6-tagged oxidized PTP4A1 (residues 1-160), bound to Ni-NTA agarose (domain or fragment, human, UniProt Q93096 1-160, looked up)
chain: MARMNRPAPVEVTYKNMRFLITHNPTNATLNKFIEELKKYGVTTIVRVCEATYDTTLVEKEGIHVLDWPFDDGAPPSNQIVDDWLSLVKIKFREEPGCCIAVHCVAGLGRAPVLVALALIEGGMKYEDAVQFIRQKRRGAFNSKQLLYLEKYRPKMRLRF
modifications: oxidized: disulfide bond between Cys104 and Cys49
notes: also called oxo-PTP4A1; source: E. coli BL21 (DE3), purified (Ni-NTA, cation exchange); beads incubated with 0.5 mM H2O2 for 1 hour; not shown: His6, N-terminal, kept
B2: His6-tagged PTP4A1 (residues 1-160), untreated, bound to Ni-NTA agarose (domain or fragment, human, UniProt Q93096 1-160, looked up)
chain: MARMNRPAPVEVTYKNMRFLITHNPTNATLNKFIEELKKYGVTTIVRVCEATYDTTLVEKEGIHVLDWPFDDGAPPSNQIVDDWLSLVKIKFREEPGCCIAVHCVAGLGRAPVLVALALIEGGMKYEDAVQFIRQKRRGAFNSKQLLYLEKYRPKMRLRF
notes: Not treated with H2O2 or DTT; also called protein tyrosine phosphatase 4A type 1; untreated beads containing both oxidized and reduced PTP4A1; source: E. coli BL21 (DE3), purified (Ni-NTA, cation exchange); not shown: His6, N-terminal, kept

Target: T1, full-length human SRC, purified (human, UniProt P12931 1-536)
T1 construct: also called full-length SRC; not shown: GST, N-terminal, cleaved
Experiment: pull-down; His6-tagged PTP4A1 on Ni-NTA agarose beads (untreated, or treated with 0.5 mM H2O2 or 20 mM DTT for 1 hour); 0.5 μg SRC or 17.2 nmol GST-tagged SH3SH2 in 1 mL 60 mM HEPES pH 7.4, 5 mM MgCl2, 5 mM MnCl2, 1% BSA; 4°C, 2 hours; Western blotting
Details: both partners purified

Row | Binder | binding result
1 | B1 | binds
2 | B2 | binds
